For test [1], the target named is AcrIIA22 2-amino acid C-terminal truncation mutant (thrombin-cleaved) (unnamed clostridial genus CAG-217 (human gut metagenome)). Briefly: SEC; thrombin-cleaved AcrIIA22 variants; Superdex75 16/60; 25 mM Tris pH 7.5, 200 mM NaCl; size against protein standards. (In general: SEC sorts molecules by how far they enter the pores of the column.)
Test [2] addresses AcrIIA22 (thrombin-cleaved, from the N-terminal His6 construct) (unnamed clostridial genus CAG-217 (human gut metagenome)). The description is as above.

Usually stoichiometry N stands for the number of molecules, sites or subunits per partner or assembly.

The substance “AcrIIA22 2-amino acid C-terminal truncation mutant (thrombin-cleaved) (domain or fragment)” displayed a stoichiometry N in test [1] of 2.
In turn, “AcrIIA22 (thrombin-cleaved, from the N-terminal His6 construct) (natural protein)” yielded a stoichiometry N in test [2] of 4.

The values are drawn from paper PMC8545432.
